For assay [1], the target named is T1, Human GPA33 on GPA33+ colorectal cancer cell lines (Colo 205, LS 174T, SW 1222) (human, UniProt Q99795 22-319).
T1 construct: Endogenous GPA33 on human colorectal cancer cell lines; also called surface human GPA33; GPA33+ tumor cell lines
T1 sequence: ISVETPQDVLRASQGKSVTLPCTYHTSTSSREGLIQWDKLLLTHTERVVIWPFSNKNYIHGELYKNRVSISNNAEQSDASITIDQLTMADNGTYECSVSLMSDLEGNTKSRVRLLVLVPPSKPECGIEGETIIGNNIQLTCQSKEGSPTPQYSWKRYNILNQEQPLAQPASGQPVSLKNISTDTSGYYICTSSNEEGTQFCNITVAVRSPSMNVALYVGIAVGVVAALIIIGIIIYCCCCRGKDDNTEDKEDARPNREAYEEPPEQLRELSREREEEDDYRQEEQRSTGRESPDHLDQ
The experiment in a line: cell binding to SW1222 Luc cells; IgG format.

For assay [2], the target named is T2, Human GPA33 (recombinant protein, Novoprotein) (human, UniProt Q99795 22-235).
T2 construct: Bought recombinant protein immobilized on a CM5 chip; also called GPA33 antigen; tumor antigen GPA33
T2 sequence: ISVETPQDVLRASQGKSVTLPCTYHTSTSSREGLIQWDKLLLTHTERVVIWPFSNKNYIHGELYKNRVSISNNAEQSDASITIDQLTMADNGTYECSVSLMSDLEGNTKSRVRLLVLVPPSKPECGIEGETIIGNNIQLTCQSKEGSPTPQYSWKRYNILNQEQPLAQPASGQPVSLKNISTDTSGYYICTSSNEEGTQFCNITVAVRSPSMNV
The experiment in a line: SPR (Biacore), binding to GPA33 protein; IgG format. As for the experimental part: SPR analysis. Human GPA33 (Novoprotein, Summit, NJ) was immobilized on CM5 chips. Five concentrations of 2-fold serially diluted huA33 IgG1 or huA33-BsAbs (starting at 20 nM) were flowed over the chip using a Biacore™ T100 system (GE Healthcare, Chicago, IL). Binding kinetics of huA33 were measured at 25° C. and binding kinetics of huA33-BsAbs were measured at both 25° C. and 37° C. The sensorgrams were fitted with two state binding model for both to derive kinetic parameters.
On the technique in general: Surface plasmon resonance follows binding to a sensor surface in real time, without labels.

Assay [3] concerns the target T1, Human GPA33 on GPA33+ colorectal cancer …. The assay is described as follows: cell binding to LS174T Luc cells; IgG format.

B1: G3A_VK3+VH1 (antibody, IgG1, V domains shown)
VH: EVQLVESGGGLVKPGGSLRLSCAASGFAFSTYDMSWVRQAPGKGLEWVSTISSGGSYTYYADSVKGRFTISRDNAKNSLYLQMNSLRAEDTAVYYCAPTTVVPFAYWGQGTLVTVSA
VL: DIQMTQSPSSLSTSVGDRVTITCKASQNVRTVVAWYQQKPGKAPKTLIYLASNRHSGVPSRFSGSGSGTEFTLTISNLQPEDFATYYCLQHWSYPLTFGSGTKLEVK
Broadly, the EC50 is the midpoint of the concentration-response curve. Read a low EC50 as an effect from little substance. One may read the Kd as a measure of binding affinity in units of concentration. Regarding B1, the figures for the EC50 in assay [1] and in assay [3] were 0.338 µg/mL and 0.642 µg/mL, respectively. Further, in assay [2], the Kd worked out at 0.19 nM.

B2: G3A_VK5+VH1 (antibody, V domains shown)
VH: EVQLVESGGGLVKPGGSLRLSCAASGFAFSTYDMSWVRQAPGKGLEWVSTISSGGSYTYYADSVKGRFTISRDNAKNSLYLQMNSLRAEDTAVYYCAPTTVVPFAYWGQGTLVTVSA
VL: DIQMTQSPSSLSASVGDRVTITCKASQNVRTVVAWYQQKPGKAPKTLIYLASNRHTGVPSRFSGSGSGTEFTLTISNLQPEDFATYYCLQHWSYPLTFGSGTKLEVK
For the molecule B2, the values for the EC50 in assay [1] and in assay [3] were 0.496 µg/mL and 0.44 µg/mL, respectively. The Kd in assay [2] stood at 0.171 nM.

B3: G3A_VK6+VH1 (antibody, V domains shown)
VH: EVQLVESGGGLVKPGGSLRLSCAASGFAFSTYDMSWVRQAPGKGLEWVSTISSGGSYTYYADSVKGRFTISRDNAKNSLYLQMNSLRAEDTAVYYCAPTTVVPFAYWGQGTLVTVSA
VL: DIQMTQSPSSLSASVGDRVTITCKASQNVRTVVAWYQQKPGKAPKRLIYLASNRHTGVPSRFSGSGSGTEFTLTISNLQPEDFATYFCLQHWSYPLTFGSGTKLEVK
For B3, the figures for the EC50 in assay [1] and in assay [3] were 0.831 µg/mL and 0.402 µg/mL, respectively. Further, the Kd in assay [2] came out at 0.884 nM.

B4: G3A_VK7+VH3 (antibody, V domains shown)
VH: EVQLVESGGGLVKPGGSLRLSCAASGFAFSTYDMSWVRQAPGKGLEWVATISSGGSYTYYADSVKGRFTISRDSAKNSLYLQMNSLRAEDTAVYYCAPTTVVPFAYWGQGTLVTVSA
VL: DIQMTQSPSSLSASVGDRVTITCKASQNVRTVVAWYQQKPGKAPKRLIYLASNRHTGVPSRFSGSGSGTEFTLTISNVQPEDFATYYCLQHWSYPLTFGSGTKLEVK
Take B4: the Kd in assay [2] was found to be 1.62 nM. In addition, the EC50 in assay [3] amounted to 0.768 µg/mL.

B5: G3A_VK8+VH1 (antibody, V domains shown)
VH: EVQLVESGGGLVKPGGSLRLSCAASGFAFSTYDMSWVRQAPGKGLEWVSTISSGGSYTYYADSVKGRFTISRDNAKNSLYLQMNSLRAEDTAVYYCAPTTVVPFAYWGQGTLVTVSA
VL: DIQMTQSPSSLSASVGDRVTITCKASQNVRTVVAWYQQKPGKAPKRLIYLASNRHTGVPSRFSGSGSGTEFTLTISNLQPEDFADYYCLQHWSYPLTFGSGTKLEVK
In the case of B5, the EC50 in assay [1] is 0.568 µg/mL; in assay [3] it was 0.454 µg/mL. Moreover, the Kd in assay [2] was 0.975 nM.

B6: G3A_VK7+VH1 (antibody, V domains shown)
VH: EVQLVESGGGLVKPGGSLRLSCAASGFAFSTYDMSWVRQAPGKGLEWVSTISSGGSYTYYADSVKGRFTISRDNAKNSLYLQMNSLRAEDTAVYYCAPTTVVPFAYWGQGTLVTVSA
VL: DIQMTQSPSSLSASVGDRVTITCKASQNVRTVVAWYQQKPGKAPKRLIYLASNRHTGVPSRFSGSGSGTEFTLTISNVQPEDFATYYCLQHWSYPLTFGSGTKLEVK
With B6, the results for the EC50 in assay [1] and in assay [3] were 1.14 µg/mL and 0.481 µg/mL, respectively. Moreover, in assay [2], the Kd stood at 0.888 nM.

B7: G3A_VK6+VH3 (antibody, V domains shown)
VH: EVQLVESGGGLVKPGGSLRLSCAASGFAFSTYDMSWVRQAPGKGLEWVATISSGGSYTYYADSVKGRFTISRDSAKNSLYLQMNSLRAEDTAVYYCAPTTVVPFAYWGQGTLVTVSA
VL: DIQMTQSPSSLSASVGDRVTITCKASQNVRTVVAWYQQKPGKAPKRLIYLASNRHTGVPSRFSGSGSGTEFTLTISNLQPEDFATYFCLQHWSYPLTFGSGTKLEVK
As for B7, the EC50 in assay [1] is 0.614 µg/mL; in assay [3], 0.847 µg/mL. Also, the Kd in assay [2] amounted to 1.45 nM.

B8: G3A_VK5+VH3 (antibody, V domains shown)
VH: EVQLVESGGGLVKPGGSLRLSCAASGFAFSTYDMSWVRQAPGKGLEWVATISSGGSYTYYADSVKGRFTISRDSAKNSLYLQMNSLRAEDTAVYYCAPTTVVPFAYWGQGTLVTVSA
VL: DIQMTQSPSSLSASVGDRVTITCKASQNVRTVVAWYQQKPGKAPKTLIYLASNRHTGVPSRFSGSGSGTEFTLTISNLQPEDFATYYCLQHWSYPLTFGSGTKLEVK
For B8, the EC50 was 0.387 µg/mL in assay [1] and 0.424 µg/mL in assay [3]. Also, in assay [2], the Kd amounted to 0.238 nM.

B9: G3A_VK8+VH3 (antibody, V domains shown)
VH: EVQLVESGGGLVKPGGSLRLSCAASGFAFSTYDMSWVRQAPGKGLEWVATISSGGSYTYYADSVKGRFTISRDSAKNSLYLQMNSLRAEDTAVYYCAPTTVVPFAYWGQGTLVTVSA
VL: DIQMTQSPSSLSASVGDRVTITCKASQNVRTVVAWYQQKPGKAPKRLIYLASNRHTGVPSRFSGSGSGTEFTLTISNLQPEDFADYYCLQHWSYPLTFGSGTKLEVK
On to B9, for which the EC50 came to 0.792 µg/mL in assay [1] and 0.433 µg/mL in assay [3]. In addition, in assay [2], the Kd turned out to be 1.89 nM.

B10: G3A_VK3+VH3 (antibody, IgG1, V domains shown)
VH: EVQLVESGGGLVKPGGSLRLSCAASGFAFSTYDMSWVRQAPGKGLEWVATISSGGSYTYYADSVKGRFTISRDSAKNSLYLQMNSLRAEDTAVYYCAPTTVVPFAYWGQGTLVTVSA
VL: DIQMTQSPSSLSTSVGDRVTITCKASQNVRTVVAWYQQKPGKAPKTLIYLASNRHSGVPSRFSGSGSGTEFTLTISNLQPEDFATYYCLQHWSYPLTFGSGTKLEVK
As for B10, the concentration giving a half-maximal response (EC50) in assay [1] was found to be 0.391 µg/mL; in assay [3], 0.398 µg/mL. Further, the Kd in assay [2] was 0.241 nM.

B11: G3A_VK4+VH3 (antibody, IgG1, V domains shown)
VH: EVQLVESGGGLVKPGGSLRLSCAASGFAFSTYDMSWVRQAPGKGLEWVATISSGGSYTYYADSVKGRFTISRDSAKNSLYLQMNSLRAEDTAVYYCAPTTVVPFAYWGQGTLVTVSA
VL: DIQMTQSPSSLSASVGDRVTITCKASQNVRTVVAWYQQKPGKAPKTLIYLASNRHTGVPSRFSGSGSGTEFTLTISNLQPEDFATYYCLQHWSYPLTFGSGTKLEVK
Regarding B11, the EC50 in assay [1] is 1.03 µg/mL; in assay [3], 0.279 µg/mL. Further, in assay [2], the Kd was 0.236 nM.

B12: G3A_chimeric (antibody, V domains shown)
VH: EVKLVESGGGLVKPGGSLKLSCAASGFAFSTYDMSWVRQTPEKRLEWVATISSGGSYTYYLDSVKGRFTISRDSARNTLYLQMSSLRSEDTALYYCAPTTVVPFAYWGQGTLVTVSA
VL: DIVMTQSQKFMSTSVGDRVSITCKASQNVRTVVAWYQQKPGQSPKTLIYLASNRHTGVPDRFTGSGSGTDFTLTISNVQSEDLADYFCLQHWSYPLTFGSGTKLEVK
With B12, the figures for the EC50 in assay [1] and in assay [3] were 1 µg/mL and 0.248 µg/mL, respectively. Further, the Kd in assay [2] was 0.196 nM.

B13: G3A_VK8+VH2 (antibody, V domains shown)
VH: EVQLVESGGGLVKPGGSLRLSCAASGFAFSTYDMSWVRQAPGKGLEWVATISSGGSYTYYLDSVKGRFTISRDSAKNSLYLQMNSLRAEDTAVYYCAPTTVVPFAYWGQGTLVTVSA
VL: DIQMTQSPSSLSASVGDRVTITCKASQNVRTVVAWYQQKPGKAPKRLIYLASNRHTGVPSRFSGSGSGTEFTLTISNLQPEDFADYYCLQHWSYPLTFGSGTKLEVK
On to B13, for which the values for the EC50 in assay [1] and in assay [3] were 0.993 µg/mL and 1.09 µg/mL, respectively. Further, the Kd in assay [2] stood at 1.85 nM.

B14: G3A_VK7+VH2 (antibody, V domains shown)
VH: EVQLVESGGGLVKPGGSLRLSCAASGFAFSTYDMSWVRQAPGKGLEWVATISSGGSYTYYLDSVKGRFTISRDSAKNSLYLQMNSLRAEDTAVYYCAPTTVVPFAYWGQGTLVTVSA
VL: DIQMTQSPSSLSASVGDRVTITCKASQNVRTVVAWYQQKPGKAPKRLIYLASNRHTGVPSRFSGSGSGTEFTLTISNVQPEDFATYYCLQHWSYPLTFGSGTKLEVK
Take B14: the EC50 in assay [1] was 0.795 µg/mL; in assay [3], 0.576 µg/mL. The Kd in assay [2] is 1.75 nM.

B15: G3A_VK6+VH2 (antibody, V domains shown)
VH: EVQLVESGGGLVKPGGSLRLSCAASGFAFSTYDMSWVRQAPGKGLEWVATISSGGSYTYYLDSVKGRFTISRDSAKNSLYLQMNSLRAEDTAVYYCAPTTVVPFAYWGQGTLVTVSA
VL: DIQMTQSPSSLSASVGDRVTITCKASQNVRTVVAWYQQKPGKAPKRLIYLASNRHTGVPSRFSGSGSGTEFTLTISNLQPEDFATYFCLQHWSYPLTFGSGTKLEVK
The molecule B15 had an EC50 in assay [1] of 1.07 µg/mL. For the same molecule, the Kd in assay [2] stood at 1.74 nM.

For the origin of these results see patent publication US20240026037A1 (Memorial Sloan Kettering, published 2024).
